# From the Immune Epitope Database (IEDB)
# How the values were obtained:
# Conditions in all cases: source organism: Cryptosporidium parvum Iowa II
# HLA-A*02:01 = experiment: IEDB peptide-MHC binding, purified MHC/direct/fluorescence; filed as Kd, often an IC50 or EC50 that approximates it; ≥ and ≤ were set here for values at or beyond the usual limits of such assays
# HLA-A*02:12 = experiment: as above
# HLA-A*23:01 = experiment: as above
# HLA-A*24:03 = experiment: as above
# HLA-A*26:01 = experiment: as above
# HLA-A*29:02 = experiment: as above
# HLA-B*15:01 = experiment: as above
# HLA-B*15:17 = experiment: as above
# HLA-B*39:01 = experiment: as above
# HLA-B*46:01 = experiment: as above
# HLA-B*57:01 = experiment: as above
# HLA-A*01:01 = experiment: IEDB peptide-MHC binding, purified MHC/competitive/fluorescence; filed as Kd, often an IC50 or EC50 that approximates it; ≥ and ≤ were set here for values at or beyond the usual limits of such assays
# HLA-A*11:01 = experiment: as above
# HLA-A*30:01 = experiment: as above
# HLA-A*30:02 = experiment: as above
# HLA-A*66:01 = experiment: as above
# HLA-B*07:02 = experiment: as above
# HLA-B*08:01 = experiment: as above
# HLA-B*14:02 = experiment: as above
# HLA-B*27:05 = experiment: as above
# HLA-B*40:01 = experiment: as above
# HLA-B*44:02 = experiment: as above
# HLA-B*51:01 = experiment: as above
# HLA-B*53:01 = experiment: as above
# HLA-B*58:01 = experiment: as above
sequence,measurement,setting,value
TVFRNQNRV,Kd,HLA-A*02:01,≥ 20 µM
same,Kd,HLA-A*02:12,≥ 20 µM
same,Kd,HLA-A*23:01,≥ 20 µM
same,Kd,HLA-A*24:03,≥ 20 µM
same,Kd,HLA-A*26:01,≥ 20 µM
same,Kd,HLA-A*29:02,≥ 20 µM
same,Kd,HLA-B*15:01,≥ 20 µM
same,Kd,HLA-B*15:17,≥ 20 µM
same,Kd,HLA-B*39:01,≥ 20 µM
same,Kd,HLA-B*46:01,≥ 20 µM
same,Kd,HLA-B*57:01,≥ 20 µM
same,Kd,HLA-A*01:01,≥ 5 µM
same,Kd,HLA-A*11:01,≥ 5 µM
same,Kd,HLA-A*30:01,≥ 5 µM
same,Kd,HLA-A*30:02,≥ 5 µM
same,Kd,HLA-A*66:01,≥ 5 µM
same,Kd,HLA-B*07:02,≥ 5 µM
same,Kd,HLA-B*08:01,≥ 5 µM
same,Kd,HLA-B*14:02,≥ 5 µM
same,Kd,HLA-B*27:05,≥ 5 µM
same,Kd,HLA-B*40:01,≥ 5 µM
same,Kd,HLA-B*44:02,≥ 5 µM
same,Kd,HLA-B*51:01,≥ 5 µM
same,Kd,HLA-B*53:01,≥ 5 µM
same,Kd,HLA-B*58:01,≥ 5 µM
